According to paper PMC11014265:
Like-named read-outs stand apart in the source and are kept apart here.

T1: HrpA1-630 (Escherichia coli, UniProt P43329 1-630)
T1 sequence: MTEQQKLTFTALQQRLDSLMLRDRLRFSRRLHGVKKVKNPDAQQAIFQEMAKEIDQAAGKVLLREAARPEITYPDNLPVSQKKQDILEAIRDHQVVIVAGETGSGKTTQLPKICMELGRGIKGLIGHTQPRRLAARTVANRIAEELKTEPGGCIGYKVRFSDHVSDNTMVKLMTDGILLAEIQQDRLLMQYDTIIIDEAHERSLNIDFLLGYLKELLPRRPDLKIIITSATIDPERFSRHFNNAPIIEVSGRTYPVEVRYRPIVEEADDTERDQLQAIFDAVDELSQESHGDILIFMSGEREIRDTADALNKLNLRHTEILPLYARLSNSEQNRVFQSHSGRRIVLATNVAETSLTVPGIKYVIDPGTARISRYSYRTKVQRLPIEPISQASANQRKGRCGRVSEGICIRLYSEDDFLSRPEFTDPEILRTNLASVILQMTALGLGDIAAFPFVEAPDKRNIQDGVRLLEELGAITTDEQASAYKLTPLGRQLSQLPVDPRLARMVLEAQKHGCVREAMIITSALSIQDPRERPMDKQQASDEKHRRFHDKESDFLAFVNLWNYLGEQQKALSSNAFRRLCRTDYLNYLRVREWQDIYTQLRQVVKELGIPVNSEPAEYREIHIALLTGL

B1: D-C11, C2 complex (ssDNA)
DNA: CCCCCCCCCCC
B2: D-C11 i-motif (structured_DNA)
DNA 1: CCCCCCCCCCC
DNA 2: CCCCCCCCCCC

Experiments:
[1] = molecular target: T1, HrpA1-630; assay: crystal structure
[2] = molecular target: T1, HrpA1-630; assay: crystal structure; remark: listed apart in the source

| Binder | binding result [1] | binding result [2] |
| --- | --- | --- |
| B1 | binds |  |
| B2 |  | binds |
